Results reported in PMC4778124, “A continuous sirtuin activity assay without any coupling to enzymatic or chemical reactions” (Scientific Reports, 2016).
Several values for one entry are separate records, joined by “and”; a condition that tells them apart may be missing. Equal entries are not always repeated.

Columns and labels:
Type in all cases: biochemical, human
[1] = system: T1, CC(=O)N[C@@H](CCC(=O)O)C(=O)N[C@@H](C)C(=O)N[C@@H](CC(C)C)C(=O)N1CCC[C@H]1C(=O)N[C@@H](CCCCN)C(=O)N[C@@H](CCCCNC(=O)CCCCCCCCCCNC(=O)c1ccccc1N)C(=O)N[C@@H](Cc1ccc(O)c([N+](=O)[O-])c1)C(=O)NCC(=O)NCC(N)=O; experiment: Continuous fluorescence assay, substrate kinetics; details: other: Sirt6 500 nM; fluorescence spectrophotometer (footnote a); 37.0 °C
T1 construct: His-tag; made in house; host or cells: E. coli BL21 DE3
Description: The fluorescence measurements were performed on a Hitachi F-4500 fluorescence spectrophotometer (Tokyo, Japan) at λEx = 310 nm and λEm = 405 nm (slitEx = 5 nm, slitEm = 2.5 nm, PMT = 700 V for 3, 4 and 5 as well as slitEx = 10 nm, slitEm = 10 nm, PMT = 950 V for 4a). Each reaction mixture contained assay-buffer, 0.5 mM NAD^+ and various peptide concentrations (0.1–100 μM) and was preincubated for 5 minutes at 37 °C. The reaction was started by adding human sirtuin (0.1–0.5 μM) and observed for 5–10 minutes. Product formation could be monitored by increase of relative fluorescence. This signal was converted into product concentration via calibration lines. […] The reaction mixture was analyzed with HPLC, to control if the entire peptide substrate was turned to product. Additionally the mixture was diluted (0.1–25 μM) and measured with Hitachi F-4500 fluorescence spectrophotometer at the same conditions as described above.
The microtiter plate fluorescence measurements were performed on a Tecan Infinite M200 microplate reader (Maennedorf, Switzerland) at λEx = 320 nm and λEm = 408 nm (lag time 9 μs, integration time […], gain 160, 170 or 182). The reactions (total volume 100 μl) were measured in black low-binding 96-well microtiter plates (NUNC). […] The reaction mixture for the calibration lines was prepared as described for the single fluorescence measurements. […]

[2] = system: T2, CCCCCCCCCCCCCC(=O)NCCCC[C@H](NC(=O)[C@H](CCCCN)NC(=O)[C@@H]1CCCN1C(=O)[C@H](CC(C)C)NC(=O)[C@H](C)NC(=O)[C@H](CCC(=O)O)NC(C)=O)C(=O)N[C@H](C(=O)NCC(=O)NCC(N)=O)[C@@H](C)O; experiment: HPLC based activity assay; details: other: HPLC; Sirt6 0.5 µM; pH 7.8; 37.0 °C
T2 construct: His-tag; made in house; host or cells: E. coli BL21 DE3
Description: (§1) For the determination of kinetic constants for all sirtuin mediated reactions solutions containing 20 mM TRIS/HCl pH 7.8, 150 mM NaCl, 5 mM MgCl2 (assay-buffer), 500 μM NAD^+ and varying substrate concentrations (0.5–100 μM) were used. Deacylation was started by adding human sirtuin to reach a final concentration of 0.01–0.5 μM. Enzyme-catalyzed reaction was stopped using TFA (1% final concentration) after 1 min to 180 min of incubation at 37 °C depending on substrate reactivity. The cleavage rate of the different TNFα peptide derivatives was analyzed using analytical reversed phase HPLC. 40 to 80 μl of compounds or reaction solutions were injected and separated using a linear gradient from 5% to 95% solvent B within 6min. The product and substrate peaks were quantified using absorbance at 220 nm or 365 nm (absorption of 3-Nitrotyrosyl moiety). The peak areas were integrated and converted to initial velocity rates calculated from the ratio of product area to total peak area. Linear regression of conversions plotted against time yielded reaction rates in μM/min (relative conversion below 20% of substrate). Non-linear regression according to Michaelis-Menten of the reaction rates at different substrate concentrations yielded KM- and kcat-values using the program SigmaPlot 8 (Systat Software, San Jose, USA). All measurements were done in duplicates. […]

[3] = system: T3, CCCCCCCCCCCCCC(=O)NCCCC[C@H](NC(=O)[C@H](CCCCN)NC(=O)[C@@H]1CCCN1C(=O)[C@H](CC(C)C)NC(=O)[C@H](C)NC(=O)[C@H](CCC(=O)O)NC(C)=O)C(=O)N[C@@H](Cc1ccc(O)c([N+](=O)[O-])c1)C(=O)NCC(=O)NCC(N)=O; experiment: HPLC based activity assay; details: other: HPLC; Sirt6 0.5 µM; pH 7.8; 37.0 °C
T3 construct: His-tag; made in house; host or cells: E. coli BL21 DE3
Description: as §1

[4] = system: T1, CC(=O)N[C@@H](CCC(=O)O)C(=O)N[C@@H](C)C(=O)N[C@@H](CC(C)C)C(=O)N1CCC[C@H]1C(=O)N[C@@H](CCCCN)C(=O)N[C@@H](CCCCNC(=O)CCCCCCCCCCNC(=O)c1ccccc1N)C(=O)N[C@@H](Cc1ccc(O)c([N+](=O)[O-])c1)C(=O)NCC(=O)NCC(N)=O; experiment: HPLC based activity assay; details: other: HPLC; Sirt6 0.5 µM; pH 7.8; 37.0 °C
Description: as §1

## Sirt6 (Homo sapiens)
[1]
  Km: 23.5 ± 4.9 µM
  kcat/Km: 39 M⁻¹ s⁻¹
[2]
  Km: 6 µM and 5.7 ± 1.3 µM
  kcat: 4.7∙10^-3 ± 0.3∙10^-3 s^-1
  kcat/Km: 8.25∙10^2 M^-1s^-1
[3]
  Km: 17 µM and 17.3 ± 2.6 µM
  kcat: 4.9∙10^-3 ± 0.2∙10^-3 s^-1
  kcat/Km: 2.81∙10^2 M^-1s^-1
[4]
  Km: 18.3 ± 4.4 µM
  kcat: 8.3∙10^-4 ± 0.7∙10^-4 s^-1
  kcat/Km: 45.00 M⁻¹ s⁻¹
